The record followed here is US8759482B2, “Kinetically efficient substrate for lipoic acid ligase” (Massachusetts Institute of Technology, priority 2009, dated 2014).

Substrate in the series: CC[C@H](C)[C@H](NC(=O)[C@H](CCC(=O)O)NC(=O)[C@H](Cc1ccccc1)NC(=O)CN)C(=O)N[C@@H](CC(=O)O)C(=O)N[C@@H](CCCCN)C(=O)N[C@H](C(=O)N[C@@H](Cc1c[nH]c2ccccc12)C(=O)N[C@@H](Cc1ccc(O)cc1)C(=O)N[C@@H](CC(=O)O)C(=O)N[C@@H](CC(C)C)C(=O)N[C@@H](CC(=O)O)C(=O)N[C@@H](C)C(=O)O)C(C)C
Nature of the series: Lp1A-catalyzed lipoylation kinetics (kcat, Km) by HPLC. The format is biochemical, Escherichia coli. To be noted: other: synthetic LAP2 peptide, 50 nM Lp1A, 750 μM lipoic acid, 30° C.

Protocol: Various concentrations of synthetic LAP2 peptide (not a fusion protein) were lipoylated with 50 nM Lp1A, 750 μM lipoic acid, and 3 mM ATP, and initial reaction rates were measured by HPLC. […] Measurements were performed in triplicate.
Using HPLC to quantify product formation, the kcat and Km values were measured for Lp1A-catalyzed lipoylation of a synthetic LAP2 peptide (without an attached fusion protein).
To measure the kcat and Km values for lipoylation, 50 nM Lp1A was combined with 750 μM lipoic acid, 2 mM ATP, and 5 mM magnesium acetate in DPBS. Varying concentrations of LAP2 (5.5, 11, 22, 44, 88, 176, or 352 μM) were used; 60 μL aliquots were removed from the 30° C. reactions at 5 min intervals, up to 20 min, and quenched with 180 mM EDTA (final concentration). HPLC was used to determine the amount of product in each aliquot, and kinetic parameters were extracted using the Michaelis-Menten equation as described previously.^13,28

B1: Escherichia coli lipoic acid ligase (Lp1A) (Escherichia coli K-12) (protein)
chain: MSTLRLLISDSYDPWFNLAVEECIFRQMPATQRVLFLWRNADTVVIGRAQNPWKECNTRRMEEDNVRLARRSSGGGAVFHDLGNTCFTFMAGKPEYDKTISTSIVLNALNALGVSAEASGRNDLVVKTVEGDRKVSGSAYRETKDRGFHHGTLLLNADLSRLANYLNPDKKKLAAKGITSVRSRVTNLTELLPGITHEQVCEAITEAFFAHYGERVEAEIISPNKTPDLPNFAETFARQSSWEWNFGQAPAFSHLLDERFTWGGVELHFDVEKGHITRAQVFTDSLNPAPLEALAGRLQGCLYRADMLQQECEALLVDFPEQEKELRELSAWMAGAVR
In the case of B1, the Km was 13.32 ± 1.78 µM, the kcat turned out to be 0.22 s⁻¹ and the kcat/Km worked out at 16500 M⁻¹ s⁻¹.
